Assay [1] addresses T1, α11β1 on human pulmonary myofibroblasts (human, UniProt Q9UKX5 23-1188; P05556 21-798).
T1 construct: whole, on cells; The cells are not transfected; also called HPF/MF
In words: flow cytometry on human pulmonary myofibroblasts (title: Myofibroblast Binding); MFI against Log [µg/ml]. The procedure:
(§1) Human Pulmonary Fibroblasts (ScienCell) were cultured in complete Fibroblast Growth Medium (ScienCell) until 80% confluent in T-150 flasks. Cells were washed and harvested using Accutase. Cells were seeded into T-150 flasks at 7,500 cells/cm² in complete FGF and cultured for 72 hours. Cells were then washed and starved in serum reduced medium for 24 hours. After starvation, cells were treated with TGFβ1 (R&D Systems) for 72 hours. Cells were harvested using Accutase and seeded in 96-well conical bottom plates. Cells were blocked with Heat Inactived Fetal Bovine Serum (Gibco) for 30 minutes at 4° C. Cells were then incubated with anti-al I antibodies at the doses described in each figure for 30 minutes at 4° C. A human anti-al I antibody (Creative BioLabs) was included as a positive control as well as the appropriate IgG isotype negative controls. Cells were washed twice and incubated with PE conjugated secondary antibodies specific to the IgG class of the anti-α11 antibodies being tested for 30 minutes at 4° C. Cells were washed twice and fixed in 1% PF A for 30 minutes. Cells were acquired on a FACS Verse […]. Data were analyzed by gating on single cells and determining the geometric Mean Fluorescence Intensity (gMFI) in the PE channel for each sample.
Target sequence in this assay (P05556 21-798, chain 2 of 2, one chain of several): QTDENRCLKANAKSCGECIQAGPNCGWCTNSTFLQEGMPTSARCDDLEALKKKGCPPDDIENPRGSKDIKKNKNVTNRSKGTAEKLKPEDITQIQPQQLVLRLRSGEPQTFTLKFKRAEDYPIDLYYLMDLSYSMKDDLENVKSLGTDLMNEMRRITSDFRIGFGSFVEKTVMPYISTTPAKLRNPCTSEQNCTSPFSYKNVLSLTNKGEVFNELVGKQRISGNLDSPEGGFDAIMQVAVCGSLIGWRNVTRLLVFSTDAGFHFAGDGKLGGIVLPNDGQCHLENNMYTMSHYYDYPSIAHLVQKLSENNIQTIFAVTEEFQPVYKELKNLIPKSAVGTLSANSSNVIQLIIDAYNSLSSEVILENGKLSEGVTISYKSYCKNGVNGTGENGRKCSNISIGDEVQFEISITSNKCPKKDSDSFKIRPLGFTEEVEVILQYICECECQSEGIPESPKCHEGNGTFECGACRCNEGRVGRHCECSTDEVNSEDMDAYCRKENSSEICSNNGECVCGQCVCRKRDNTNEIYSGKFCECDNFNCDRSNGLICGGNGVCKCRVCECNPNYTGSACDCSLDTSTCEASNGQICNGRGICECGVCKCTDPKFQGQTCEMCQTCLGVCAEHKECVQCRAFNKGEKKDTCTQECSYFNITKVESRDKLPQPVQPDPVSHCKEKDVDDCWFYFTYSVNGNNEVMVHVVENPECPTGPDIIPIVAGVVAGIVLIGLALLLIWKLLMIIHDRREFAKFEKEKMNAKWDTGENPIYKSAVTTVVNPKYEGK
(A flow cytometer gives signals particle by particle.)

Assay [2] addresses T2, human α11 expressed on CHO-K1 cells (human, UniProt Q9UKX5 23-1188).
T2 sequence (Q9UKX5 whole entry, looked up): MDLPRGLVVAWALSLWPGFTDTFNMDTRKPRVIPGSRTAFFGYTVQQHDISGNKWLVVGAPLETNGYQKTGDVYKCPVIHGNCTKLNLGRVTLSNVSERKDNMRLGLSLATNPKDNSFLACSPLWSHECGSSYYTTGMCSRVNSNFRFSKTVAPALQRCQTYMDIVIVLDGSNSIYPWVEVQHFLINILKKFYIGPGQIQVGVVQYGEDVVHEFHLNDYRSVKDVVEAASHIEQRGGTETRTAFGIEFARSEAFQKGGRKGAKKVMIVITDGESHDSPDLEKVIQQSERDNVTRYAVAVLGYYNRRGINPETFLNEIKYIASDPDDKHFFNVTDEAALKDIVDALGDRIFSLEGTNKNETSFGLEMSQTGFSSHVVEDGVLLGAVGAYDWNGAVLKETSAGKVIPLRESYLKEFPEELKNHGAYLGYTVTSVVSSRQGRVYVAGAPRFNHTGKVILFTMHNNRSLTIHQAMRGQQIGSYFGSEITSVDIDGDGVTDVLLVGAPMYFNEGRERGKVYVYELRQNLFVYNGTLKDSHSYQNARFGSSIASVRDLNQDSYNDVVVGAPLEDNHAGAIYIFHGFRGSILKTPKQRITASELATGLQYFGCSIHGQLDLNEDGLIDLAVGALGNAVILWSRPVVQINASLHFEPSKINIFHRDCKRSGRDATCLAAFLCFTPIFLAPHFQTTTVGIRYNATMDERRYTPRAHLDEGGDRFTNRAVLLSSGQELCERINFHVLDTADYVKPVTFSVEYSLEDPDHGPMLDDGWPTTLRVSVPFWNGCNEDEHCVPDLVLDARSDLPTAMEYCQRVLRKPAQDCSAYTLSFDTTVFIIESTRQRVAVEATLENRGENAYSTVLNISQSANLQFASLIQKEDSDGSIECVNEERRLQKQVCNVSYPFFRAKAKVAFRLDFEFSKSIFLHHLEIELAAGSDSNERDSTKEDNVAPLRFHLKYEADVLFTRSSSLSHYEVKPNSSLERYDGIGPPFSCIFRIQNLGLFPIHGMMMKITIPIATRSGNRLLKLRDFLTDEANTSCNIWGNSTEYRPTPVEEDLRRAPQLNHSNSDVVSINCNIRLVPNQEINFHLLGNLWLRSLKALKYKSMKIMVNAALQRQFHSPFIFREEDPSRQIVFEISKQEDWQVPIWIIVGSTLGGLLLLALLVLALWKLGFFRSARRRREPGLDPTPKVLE
Nature of the assay: cell-based or functional assay.

The target in assay [3] is T2, human α11 expressed on CHO-K1 cells. In words: flow cytometry on CHO-K1 cells expressing human α11 (title: CHO-hu α11 Binding); MFI against Log [µg/ml]. As for the experimental part: (§2) 200,000 cells (wild-type CHO-K1 cells or CHO-K1 cells expressing human α11) were incubated with each antibody at desired concentrations in FACS buffer for 30 min at 4° C. Then, the cells were washed with FACS buffer and incubated with secondary antibody at 1:100 dilution for 30 minutes at 4° C. Cells were then washed and fixed with 1% PF A in PBS for 20 minutes at room temperature; washed again and read on a cytometer in FACS buffer.

The target of assay [4] is T1, α11β1 on human pulmonary myofibroblasts. In words: flow cytometry on TGFβ1-treated human pulmonary fibroblasts (myofibroblasts). As for the experimental part: as §1
Target sequence in this assay (P05556 21-798, one chain of several): as the sequence (P05556 21-798, chain 2 of 2, one chain of several) above
The target of assay [5] is T2, human α11 expressed on CHO-K1 cells. In words: cell-based or functional assay. This is another data set of the same source.
The target of the next assay is T3, recombinant human α11β1 (human, UniProt Q9UKX5 23-1141; P05556 21-728, limits assumed).
T3 construct: HIS-tagged heterodimer captured by anti-HIS antibody in SPR; also called HIS-tagged human α11β1; soluble human α11β1
In words: SPR (Biacore T200), HIS-tagged human α11β1 captured by anti-HIS, antibody injected, single cycle kinetics, 1:1 model. The procedure:
The affinity of antibodies for human α11β1 was measured by surface plasm on resonance assay (SPR). Affinity was measured at pH 7.6 and 25° C. with a Biacore T200 instrument. Anti-HIS antibody was immobilized on the SPR sensor surface using EDC/NHS covalent attachment. HIS-tagged human α11β1 was captured on the sensor surface and a single cycle kinetics assay was used. Increasing concentrations of test antibody were injected in series over the sensor-bound α11β1. Dissociation was monitored for 1000 seconds. A sensor surface with only anti-HIS antibody and a series of blank injections were used to double-reference subtract the data. A 1:1 Langmuir model was fit to the data to estimate the kinetic association and dissociation constants. The affinity (equilibrium dissociation constant) of the interaction was calculated by dividing the kinetic dissociation constant by the kinetic association constant. Between injection cycles α11β1 and bound antibody were removed with an injection of 10 mM glycine at pH 1.5.

In assay [6] the target is T2, human α11 expressed on CHO-K1 cells. Nature of the assay: flow cytometry on CHO cells expressing human α11 (CHO-α11β1 binding). As for the experimental part: as §2

Numbering of substitutions follows the chain as printed.

As usually defined, the EC50 (read off the curve) is the midpoint of the concentration-response curve. A low value points to higher potency in that assay. One may read the EC50 as the concentration needed to bring the measured effect to its halfway point. Higher therefore signals a need for much substance. By Kd is commonly meant the constant that tells how readily two partners part at equilibrium.

T3 sequence (P05556 21-728 limits assumed, chain 2 of 2, one chain of several): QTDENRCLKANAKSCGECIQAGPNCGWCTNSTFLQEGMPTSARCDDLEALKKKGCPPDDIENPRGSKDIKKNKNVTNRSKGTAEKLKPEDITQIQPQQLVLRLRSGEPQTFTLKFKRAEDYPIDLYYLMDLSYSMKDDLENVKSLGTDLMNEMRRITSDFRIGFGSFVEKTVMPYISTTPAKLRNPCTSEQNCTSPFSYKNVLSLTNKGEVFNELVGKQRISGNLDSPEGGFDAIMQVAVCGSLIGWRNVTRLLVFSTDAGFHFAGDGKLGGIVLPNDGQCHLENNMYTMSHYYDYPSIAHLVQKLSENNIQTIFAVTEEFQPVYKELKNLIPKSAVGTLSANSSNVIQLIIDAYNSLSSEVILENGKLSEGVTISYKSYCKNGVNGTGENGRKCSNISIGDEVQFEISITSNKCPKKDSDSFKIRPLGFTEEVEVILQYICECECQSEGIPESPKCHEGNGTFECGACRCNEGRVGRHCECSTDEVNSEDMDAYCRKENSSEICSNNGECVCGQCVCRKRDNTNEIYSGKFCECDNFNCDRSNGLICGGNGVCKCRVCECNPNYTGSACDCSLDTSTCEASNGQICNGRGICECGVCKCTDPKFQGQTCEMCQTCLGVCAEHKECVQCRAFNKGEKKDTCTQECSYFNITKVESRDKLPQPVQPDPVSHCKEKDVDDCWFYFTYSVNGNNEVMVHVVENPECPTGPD

B1: 1994-01-C7 variant 54 (antibody, V domains shown)
VH: QVQLVQSGAEVKKPGASVKVSCKASGYTFTSYGISWVRQAPGQGLEWMGWISAYNANTNYAQKLQGRVTMTTDTSTSTAYMELRSLRSDDTAAYYCARVTGITGTTIGPWGQGTMVTVSS
VL: DIQMTQSPSSLSASVGDRVTITCRASQSISSYLNWYQQKPGKAPKLLIYDASSLESGVPSRFSGSGSGTEFTLTISSLQPDDFAVYYCQQYNNWPQTFGQGTKVEIK
Regarding B1, the concentration for a half-maximal effect (EC50 (read off the curve)) in assay [1] was about 0.4 µg/mL. Moreover, the “IC50 (read off the curve), inhibition of cell adhesion to type I collagen” value (shortened to “IC50 (read off the curve), inhibition”) in assay [2] was about 0.6 µg/mL.

B2: 1994-01-C7 variant 60 (antibody, V domains shown)
VH: B1 VH with A56S
VL: B1 VL
Turning to B2, the “EC50 (read off the curve)” value in assay [1] is about 0.6 µg/mL; in assay [3], about 0.8 µg/mL. Moreover, the “IC50 (read off the curve), inhibition” value in assay [2] was about 0.6 µg/mL.

B3: 1994-01-C7 (antibody, V domains shown)
VH: B1 VH with A56G, G108D
VL: B1 VL
notes: Fully human, from phage display (scFv converted to IgG); also called 1994-01-C7 (#9); 1994-01-C07
In the case of B3, the entries for the “EC50 (read off the curve)” value in assay [1] and in assay [3] were about 0.5 µg/mL and about 0.4 µg/mL, respectively. For the same molecule, the EC50 in assay [4] and in assay [6] was 3.5 nM throughout. In assay [5], the “CHO-hu α11 adhesion inhibition (IC50)” value worked out at 3.3 nM. Further, the Kd with recombinant human α11β1 came out at 0.24 nM. Further, in assay [2], the “IC50 (read off the curve), inhibition” value is about 0.5 µg/mL.

B4: 1994-01-C7 variant 58 (antibody, V domains shown)
VH: B1 VH with T58V
VL: B1 VL
For the molecule B4, the “EC50 (read off the curve)” value in assay [1] was about 0.4 µg/mL. The “IC50 (read off the curve), inhibition” value in assay [2] is about 0.5 µg/mL.

B5: 79E3E3 (antibody, V domains shown)
VH: QIQLVQSGPEVKKPGESVKISCKASGYTFTDYAMNWVKQAPGNGLKWMGWINTQTGKPTYADDFKQRFVFSLETSARTTYLQINNLNIEDTATYFCTRLGTGNTKGFAYWGQGTLVTVSS
VL: DILINQSPASLTVSAGERVTMSCKSSQSLLYSENNQDYLAWYQQKPGQFPKLLIYGASNRHTGVPDRFTGSGSGTDFTLTISSVQAEDLADYYCEQTYRYPFTFGSGTKLEIK
notes: Rat hybridoma antibody; also called Wild Type
For the molecule B5, the results for the EC50 in assay [4] and in assay [6] were 3.35 nM and 3.4 nM, respectively. The “CHO-hu α11 adhesion inhibition (IC50)” value in assay [5] worked out at 9.4 nM. Moreover, the Kd with recombinant human α11β1 was determined as 1.3 nM.

B6: 16E10 (antibody, V domains shown)
VH: QSLEESGGDLVKPGASLTLTCRVSGFSFSSSYYMCWVRQAPGKGLEWIACIGTTRGSTYYATWAKGRFTISKISSTTVTLQMTSLTDADTATYFCARDATGYRINTIGLYFNLWGPGTLVTVSS
VL: ELTQTPSSVEAAVGGTPTIKCQASQTIYSYLSWYQQKPGQPPKLLIYEASKLASGVPSRFSGSGSGTDYTLTISDLECADAATYYCQSYHGTASTEYNTFGGGTEVVVK
In the case of B6, the EC50 in assay [4] was 0.35 nM; in assay [6], 0.3 nM. The “CHO-hu α11 adhesion inhibition (IC50)” value in assay [5] amounted to 0.39 nM. Besides, in the assay with recombinant human α11β1, the equilibrium dissociation constant (Kd) was found to be 0.048 nM.
